Data on 3 substances can be found in US20140057857A1.

The target of test [1] is GST-Bcl-xL. The test is described as follows: fluorescence polarization assay, labeled peptide on GST-Bcl-xL. A general note: In fluorescence polarisation assays a small probe gives low polarisation when free and higher when bound to something large.
For test [2], the target named is GST-Mcl-1. The test is described as follows: fluorescence polarization assay, labeled peptide on GST-Mcl-1.
Test [3] has as its target GST-Mcl-1. The test is described as follows: competitive FP assay on Mcl-1.

For Bim (fluorescein-labeled Bim peptide), the figures for the Kd in test [1] and in test [2] were 1.4 nM and 2.5 nM, respectively.

Turning to Bak (fluorescein-labeled Bak peptide), the Kd in test [1] was determined as 14 nM; in test [2] it was 127 nM.

In test [3], Ubiquitin-Noxa fusion protein displayed an IC50 of 160 nM.

The Kd is the constant that tells how readily two partners part at equilibrium. A word on the IC50: it is the concentration that gives 50% inhibition.
